Our source for the binding result and Kd values is patent US20030096355A1 (published 2003).

The term Kd denotes the concentration at which binding is half-saturated. A higher Kd goes with weaker binding.

Test [1] addresses T1, human flag TRAIL (amino acids 95-281, Genbank accession no. AAC50332) (human, UniProt P50591 95-281).
T1 construct: range 95-281; Expressed in E. coli; not shown: flag tag
The experiment in a line: SPR, Biacore 2000, 25° C; ymkz5-receptor immobilized on CM5 chip, ligand injected. The procedure:
(§1) Binding studies were performed to determine if various TNF ligand family members are ligands for the ymkz5-receptor. The only TNF ligand which bound to the ymkz5-receptor was murine TRAIL. The binding studies, based on surface plasmon resonance, were carried out with the automated, high throughput Biacore 2000 system at 25° C. according to the manufacturer's instructions (Biacore, Uppsula, Sweden) as follows:
(§2) The receptor was immobilized on a CM5 research grade amine coupling chip (Biacore) by placing 40 μg/ml of recombinant ymkz5-receptor diluted in HEPES buffered saline (HBS-P; Biacore) at pH 4.5 on the chip. The ligands were diluted in HSP-B buffer containing 10 μg/ml BSA and 4 mg/ml dextran to block nonspecific binding sites. The ligand samples were injected over the receptors at concentrations ranging from 2 nM to 100 nM. The chips were regenerated between ligand injections by washing 2 times for 3 minutes in 25 mM CAPS, 1 M NaCl pH 10.5.
(§3) The TNF ligands tested were: human flag TRAIL (amino acids 95-281, Genbank accession no. AAC50332), murine flag TRAIL (amino acids 99-291, Genbank accession no. NP 033451), murine Fc TRAIL, human OPGL ligand (amino acids 159-318), murine OPGL ligand (amino acids 159-316), human TNFα (amino acids 82-233, Genbank accession no. CAA26669), and murine TNFα (amino acids 82-233, Genbank accession no. CAA68530). The extracellular and […] portions of the ligands were recombinantly expressed in E.coli. Specifically, the denoted amino acids for each ligand indicate the portion of the ligand expressed recombinantly. Additionally, commercially available human Fas ligand (Alexis Biochemicals, San Diego, Calif.) was also tested.. Human DR5Fc, a known TRAIL receptor, was used as a control. Results of the assay were determined by detecting the change in mass on the chip as measured by changes in […] on the chip as indicated as resonance units.
Background: Surface plasmon resonance follows binding to a sensor surface in real time, without labels.

In test [2] the target is T2, murine OPGL ligand (amino acids 159-316) (murine, UniProt O35235 159-316).
T2 construct: range 159-316; Expressed in E. coli
T2 sequence (looked up): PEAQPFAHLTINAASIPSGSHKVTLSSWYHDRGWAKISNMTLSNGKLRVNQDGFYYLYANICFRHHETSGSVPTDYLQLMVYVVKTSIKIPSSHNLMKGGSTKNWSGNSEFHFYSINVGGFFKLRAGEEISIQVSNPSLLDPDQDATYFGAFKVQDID
Described as above. The procedure: as §1, §2, §3

Test [3] has as its target T3, murine TNFα (amino acids 82-233, Genbank accession no. CAA68530) (murine, UniProt P06804 82-233).
T3 construct: range 82-233; Expressed in E. coli
T3 sequence (looked up): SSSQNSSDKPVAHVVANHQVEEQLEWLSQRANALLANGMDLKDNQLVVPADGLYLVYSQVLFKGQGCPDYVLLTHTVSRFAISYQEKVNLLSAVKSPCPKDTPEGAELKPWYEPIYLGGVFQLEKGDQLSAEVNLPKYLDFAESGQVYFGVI
The test is described as above. The procedure: as §1, §2, §3

The target of test [4] is T4, human TNFα (amino acids 82-233, Genbank accession no. CAA26669) (human, UniProt P01375 82-233).
T4 construct: range 82-233; Expressed in E. coli
T4 sequence (P01375 82-233 limits assumed): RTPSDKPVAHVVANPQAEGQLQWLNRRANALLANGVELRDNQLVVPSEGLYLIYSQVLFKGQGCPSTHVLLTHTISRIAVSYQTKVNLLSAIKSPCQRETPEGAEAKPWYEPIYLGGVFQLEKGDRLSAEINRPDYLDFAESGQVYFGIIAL
The test is described as above. The procedure: as §1, §2, §3

In test [5] the target is T5, human OPGL ligand (amino acids 159-318) (human, UniProt O14788 159-317).
T5 construct: range 159-318; Expressed in E. coli; The printed range may run past the end of the UniProt entry
T5 sequence (looked up): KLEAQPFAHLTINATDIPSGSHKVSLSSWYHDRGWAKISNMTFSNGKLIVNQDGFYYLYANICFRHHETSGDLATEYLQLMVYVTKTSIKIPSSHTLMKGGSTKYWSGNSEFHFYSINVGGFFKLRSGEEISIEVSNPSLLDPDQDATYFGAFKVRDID
The description is as above. On the procedure: as §1, §2, §3

Test [6] deals with T6, human Fas ligand (Alexis Biochemicals) (human, UniProt P48023 103-281, limits assumed).
T6 construct: Bought; construct not described
T6 sequence (looked up): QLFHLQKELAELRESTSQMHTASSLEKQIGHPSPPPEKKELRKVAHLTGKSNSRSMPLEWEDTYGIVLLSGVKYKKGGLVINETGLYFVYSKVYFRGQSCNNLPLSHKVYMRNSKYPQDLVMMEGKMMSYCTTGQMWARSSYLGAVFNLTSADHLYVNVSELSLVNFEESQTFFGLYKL
Described as above. On the procedure:
as §1, §2, §3

Another test deals with T7, active murine TRAIL (murine, UniProt P50592 99-291).
T7 construct: The result is told only for 'active murine TRAIL which was bioactive in cell culture assays'; The construct (flag-tagged 99-291 or Fc fusion) is not tied to the KD; also called murine flag TRAIL; murine Fc TRAIL
T7 sequence (looked up): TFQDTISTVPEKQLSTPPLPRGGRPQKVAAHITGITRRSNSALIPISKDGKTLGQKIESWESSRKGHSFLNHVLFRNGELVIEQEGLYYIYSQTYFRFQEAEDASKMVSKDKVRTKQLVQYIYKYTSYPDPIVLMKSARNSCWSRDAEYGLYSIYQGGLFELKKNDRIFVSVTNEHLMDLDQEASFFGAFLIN
The experiment in a line: SPR, Biacore 2000, 25° C; ymkz5-receptor amine-coupled on CM5 chip, ligand injected at 2 nM to 100 nM; receptor on the chip; active (bioactive) murine TRAIL as ligand. On the procedure: as §1
The receptor was immobilized on a CM5 research grade amine coupling chip (Biacore) by placing 40 μg/ml of recombinant ymkz5-receptor diluted in HEPES buffered saline (HBS-P; Biacore) at pH 4.5 on the chip. The ligands were diluted in HSP-B buffer containing 10 μg/ml BSA and 4 mg/ml dextran to block nonspecific binding sites. […]
The TNF ligands tested were: human flag TRAIL (amino acids 95-281, Genbank accession no. AAC50332), murine flag TRAIL (amino acids 99-291, Genbank accession no. NP 033451), murine Fc TRAIL, human OPGL ligand (amino acids 159-318), murine OPGL ligand (amino acids 159-316), human TNFα (amino acids 82-233, Genbank accession no. CAA26669), and murine TNFα (amino acids 82-233, Genbank accession no. CAA68530). […] Results of the assay were determined by detecting the change in mass on the chip as measured by changes in […] on the chip as indicated as resonance units.

T1 sequence (P50591 95-281 limits assumed): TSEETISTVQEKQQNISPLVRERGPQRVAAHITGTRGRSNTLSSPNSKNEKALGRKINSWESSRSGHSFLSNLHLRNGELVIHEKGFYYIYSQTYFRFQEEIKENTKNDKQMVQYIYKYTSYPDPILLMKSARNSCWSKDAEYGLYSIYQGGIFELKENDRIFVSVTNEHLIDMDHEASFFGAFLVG

B1: recombinant ymkz5-receptor (receptor)
chain: MPESYSFNCPDGEYQSNDVCCKTCPSGTFVKAPCKIPHTQGQCEKCHPGTFTGKDNGLHDCELCSTCDKDQNMVADCSATSDRKCECQIGLYYYDPKFPESCRPCTKCPQGIPVLQECNSTANTVC
Turning to B1, the binding result in test [1], in test [2], in test [3], in test [4], in test [5] and in test [6] was “no binding” each time. Further, binding in the test with active murine TRAIL was characterised by a dissociation constant (Kd) of 20.8 nM.
